Legend:
Assay in all cases: AUC
[1] = target: SODA_(BSn5), C-terminal SODA domain of SOD_(BSn5) (Bacillus subtilis BSn5)
[2] = target: SODA_(NG2215), NTD-deleted form of SOD_(NG2215) (SODA functional domain) (Geobacillus thermodenitrificans NG80-2)
[3] = target: SOD_(BSn5), Fe/Mn superoxide dismutase from Bacillus subtilis BSn5 (Bacillus subtilis BSn5)
[4] = target: SOD_(NG2215), Fe/Mn superoxide dismutase (cambialistic SOD) from Geobacillus thermodenitrificans NG80-2 (Geobacillus thermodenitrificans NG80-2)

SODA_(BSn5), C-terminal SODA domain of SOD_(BSn5) (domain or fragment)
stoichiometry N [1]: 2

SODA_(NG2215), NTD-deleted form of SOD_(NG2215) (SODA functional domain) (domain or fragment)
stoichiometry N [2]: 4

SOD_(BSn5), Fe/Mn superoxide dismutase from Bacillus subtilis BSn5 (enzyme)
stoichiometry N [3]: 2

SOD_(NG2215), Fe/Mn superoxide dismutase (cambialistic SOD) from Geobacillus thermodenitrificans NG80-2 (enzyme)
stoichiometry N [4]: 4
